These results are taken from patent EP4707301A1 (AJOU UNIVERSITY INDUSTRY-ACADEMIC COOPERATION FOUNDATION, dated 2026).

This assay concerns the target T1, human IL-5Rα expressed on the K562/IL-5Rα cell line (human, UniProt Q01344 21-420).
T1 construct: whole, on cells; also called human IL-5 receptor alpha subunit
T1 sequence (looked up): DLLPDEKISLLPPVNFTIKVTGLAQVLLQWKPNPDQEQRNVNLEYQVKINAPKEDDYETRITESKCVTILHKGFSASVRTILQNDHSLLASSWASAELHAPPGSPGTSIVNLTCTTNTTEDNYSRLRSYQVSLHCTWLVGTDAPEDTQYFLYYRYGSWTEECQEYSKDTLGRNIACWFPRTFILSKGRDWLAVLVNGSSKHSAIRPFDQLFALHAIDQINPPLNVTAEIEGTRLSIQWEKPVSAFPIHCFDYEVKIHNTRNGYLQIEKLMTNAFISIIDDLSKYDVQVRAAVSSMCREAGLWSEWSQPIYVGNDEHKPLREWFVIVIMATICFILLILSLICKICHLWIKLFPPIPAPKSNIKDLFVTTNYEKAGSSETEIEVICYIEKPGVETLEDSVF
In words: flow cytometry on K562/IL-5Rα cells, 50 nM antibody. In general terms: A flow cytometer gives signals particle by particle.

B1: IL-5Rα(5R65)×CD3ε-scFv(L)/scFv-Fc (bispecific antibody)
chain 1: DIQMTQSPSTLSASVGDRVTITCKASQNVGTAVAWYQQKPGKAPKLLIYWASTRHTGVPDRFSGSGSGTDFTLTISSLQPDDFATYYCQQFGRYPYTFGSGTKVEVKGGGGSGGGGSGGGGSQVQLVQSGAEVKKPGSSVKVSCKASGYTFTSYWINWVRQAPGQGLEWIGHIYPNKNENYYNHKFKDKATLTVDKSTNTAYMELSSLRSEDTAVYYCTRDYYGRSYYYAMDYWGQGTTLTVSSEPKSCDKTHTCPPCPAPEFEGGPSVFLFPPKPKDTLMISRTPEVTCVVVAVSHEDPEVKFNWYVDGVEVHNAKTKPREEQYNSTYRVVSVLTVLHQDWLNGKEYKCKVSNKALPAPIEKTISKAKGQPREPRVYTLPPSRDELTKNQVSLTCLVKGFYPSDIAVEWESNGQPENNYKTTPPVLVSDGSFTLYSKLTVDKSRWQQGNVFSCSVMHEALHNHYTQKSLSLSPGK
chain 2: QAVVTQESALTTSPGETVTLTCRSSTGAVTTSNYANWVQEKPDHLFTGLIGGTNKRAPGVPARFSGSLIGDKAALTITGAQTEDEAIYFCALWYSNLWVFGGGTKLTVLGGGGSGGGGSGGGGSEVQLVESGGGLVQPKGSLKLSCAASGFTFNTYAMNWVRQAPGKGLEWVARIRSKYNNYATYYADSVKDRFTISRDDSQSILYLQMNNLKTEDTAMYYCVRHGNFGNSYVSWFAYWGQGTLVTVSSEPKSCDKTHTCPPCPAPEFEGGPSVFLFPPKPKDTLMISRTPEVTCVVVAVSHEDPEVKFNWYVDGVEVHNAKTKPREEQYNSTYRVVSVLTVLHQDWLNGKEYKCKVSNKALPAPIEKTISKAKGQPREPQVYTLPPSRDELTENQVSLTCLVKGFYPSDIAVEWESNGQPENNYKTTPPVLDSDGSFFLYSWLTVDKSRWQQGNVFSCSVMHEALHNHYTQKSLSLSPGK
notes: Control in the scFv(L)/scFv-Fc format, built with 5R65, the parent antibody of 5R65.7; also called IL-5Rα(5R65)×CD3α-scFv(L)/scFv-Fc
B1: the binding result was “binds”.
